Results reported in patent US20210300999A1.

Tests used:
Settings in all cases: remark: other sources report otherwise
[1] = target: SARS-CoV-2 Spike trimer (Table A) (SARS-CoV-2), P0DTC2; assay: ELISA, purified IgG
[2] = target: T1, SARS-CoV-2 prefusion-stabilized trimeric spike ectodomain (S2Pecto) (SARS-CoV-2), P0DTC2; assay: ELISA on coated antigen
[3] = target: T1, SARS-CoV-2 prefusion-stabilized …; assay: hACE2 blocking ELISA on coated S2Pecto; competitor hACE2

B1: COV2-2165 (antibody, V domains shown)
VH: EVQLVESGGGLVQPGGSLRLSCAASGLTVRSNYMTWVRQTPGKGLEWVSVIYSGGSTFYADSVKGRFTISRDNSKNTVYLQMNSLRAEDTAVYYCARDLVTYGLDVWGQGTTVTVSS
VL: DIQLTQSPSFLSASVGDRVTITCRASQGISNYLAWYQQKPGTAPNLLIYAASTLQSGVPSRFSGSGSGTEFTLTISSLQPEDFATYYCQLLNSHPLTFGQGTRLEIK
- ELISA OD 450 nm [1]: 4.2 OD 450 nm
- EC50 [2]: 0.0014 µg/mL
- IC50 [3]: 0.062 µg/mL

B2: COV2-2952 (antibody, V domains shown)
VH: B1 VH
VL: B1 VL
- ELISA OD 450 nm [1]: 3.54 OD 450 nm

B3: COV2-2391 (antibody, V domains shown)
VH: QVQLVQSGAEVKKPGASVKVSCKASGYTFGSFDINWVRQATGQGLEWMGRMNSNSGNTAYAQKFQGRVTMTRDTSTNTAYMELSSLRSEDTAMYYCARMRSGWPTHGRPDDFWGRGTLVTVSS
VL: QSVLTQAPSASGTPGQRVTISCSGSNSNIGSYTINWYQQLPGTAPKLLIYGNDQRTSGVPDRFSGSKFGTSASLAISGLQSEDENNYYCAVWDDSLNGLVFGGGTKLTVL
- ELISA OD 450 nm [1]: 3.57 OD 450 nm

B4: COV2-2096 (antibody, V domains shown)
VH: B3 VH
VL: B3 VL
- ELISA OD 450 nm [1]: 4.3 OD 450 nm
- EC50 [2]: 0.001 µg/mL
- IC50 [3]: 0.067 µg/mL
